This note sets out measurements from US20200264182A1 (J OIL MILLS, published 2020).

T1: Aleuria aurantia lectin (AAL), biotin-labeled (Aleuria aurantia, UniProt P18891 2-313, biotin label (sites not given))
T1 construct: Bought reagent, used as the comparative lectin
T1 sequence (looked up): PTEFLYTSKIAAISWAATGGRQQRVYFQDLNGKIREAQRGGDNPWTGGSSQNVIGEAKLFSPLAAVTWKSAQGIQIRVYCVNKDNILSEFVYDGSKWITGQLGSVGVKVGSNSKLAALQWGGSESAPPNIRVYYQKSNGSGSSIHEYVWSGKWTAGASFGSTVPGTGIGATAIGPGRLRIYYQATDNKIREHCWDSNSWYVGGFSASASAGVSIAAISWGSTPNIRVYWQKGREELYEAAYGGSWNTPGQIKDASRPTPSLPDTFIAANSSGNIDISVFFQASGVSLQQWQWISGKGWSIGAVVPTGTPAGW

B1: Pholiota squarrosa lectin (PhoSL), biotin-labeled (other)
chain: APVPVTKLVCDGDTYKCTAYLDFGDGRWVAQWDTNVFHTG
modifications: cysteine pairing not given here; also: biotin label, site not given here
notes: Lectin; also called biotin-labeled PhoSL; fucose α1→6 specific lectin
B2: fucosylated PSA (prostate specific antigen) (enzyme)
chain: not shown
modifications: N-linked sugar chain with α1→6 fucose (site not stated)
notes: also called serum fucosylated PSA

The target of experiment [1] is B2. Briefly: sandwich ELISA: PSA captured on anti-PSA antibody, biotin-lectin detected with HRP-streptavidin.
For experiment [2], the target named is B2. Briefly: sandwich ELISA on serum, biotin-labeled PhoSL peptide, pH 9.6. On the technique in general: ELISA stands for enzyme-linked immunosorbent assay.
In experiment [3] the target is T1, Aleuria aurantia lectin (AAL), …. Briefly: sandwich ELISA on serum, biotin-labeled AAL, pH 7.4.

Where no end group is shown, it is not given here.

For B1, the binding result in experiment [1] is “binds”. As to KPVPVTKLVCDGDTYKCTAKLDFGDGRWVAQWDTNVFHK (cysteine pairing not given here; also: biotin label, sites not given here) [Pholiota squarrosa lectin peptide (PhoSL peptide), biotin-labeled], in experiment [2], the binding result is “binds”. Regarding B2, the binding result in experiment [3] is listed as “binds”.
